{
  "source": "paper PMC9404881",
  "about": "“Simultaneous Maturation of Single Chain Antibody Stability and Affinity by CHO Cell Display” (Bioengineering, 2022)",
  "binders": {"B1": {"name": "Anti-human TNFα wild-type scFv (soluble, His-tagged) (scFv, V domains shown)", "VH": "QLVQSGPELKKPGETVKISCKASGYTFTNYGMNWVKQAPGKGLKWMGWINTYTGEPTYADDFKGRFAFSLETSASTAYLQINNLKNEDSATYFCAGRRSYDYDVAMDYWGQGTSVTIS", "VL": "DIVLTQSPASLAVSLGQRATISCRASESVDSYGNYFMHWYQQKPGQPPKLLIYRASNLESGIPARFSGSGSGTDFTLTINPVEADDVATYYCQQSNEEPLTFGSGTKLEIK", "notes": "scFv from Jie Tang (Institute of Biophysics, CAS); Theoretical mass with His tag about 25 kDa; also called αTNFα; anti-TNFα WT scFv; source: 293F cells, transfected, supernatant purified on a nickel column; not shown: His6, C-terminal, kept"}, "B2": {"name": "Anti-TNFα scFv mutant A115V displayed on CHO cells (scFv, V domains shown)", "VH": "B1 VH with A105V", "VL": "B1 VL", "notes": "Most enriched clone of the maturation under normal conditions (37 °C culture, 4 °C labelling); Display construct as m4; not shown: transmembrane peptide (TM), C-terminal, kept"}, "B3": {"name": "Anti-TNFα scFv mutant G94R (soluble, His-tagged) (scFv, V domains shown)", "VH": "B1 VH with G96R", "VL": "B1 VL", "notes": "position 94 of the heavy chain in the Chothia scheme, right before heavy chain CDR3; Found by AID mutagenesis and sorting on thermo-resistant CHO cells; The base change is printed as G316A; also called G316A (base); G94R scFv; source: 293F cells, transfected, supernatant purified on a nickel column; not shown: His6, C-terminal, kept"}},
  "key": {"His-TNFα-GFP [1]": {"biological_target": "T1, His-TNFα-GFP (Homo sapiens, UniProt P01375, biotin (conjugated for the Octet measurement only))", "T1 construct": "TNFα, antigen of the anti-human TNFα scFv; The names His-TNFα-GFP and GFP-TNFα are both printed, so the side on which GFP stands is not certain; Probably the soluble form of TNFα (surmise); also called GFP-TNFα; source: E. coli containing the PET28a (+)-TNFα-GFP plasmid, purified with a Ni column", "T1 sequence (P01375 whole entry)": "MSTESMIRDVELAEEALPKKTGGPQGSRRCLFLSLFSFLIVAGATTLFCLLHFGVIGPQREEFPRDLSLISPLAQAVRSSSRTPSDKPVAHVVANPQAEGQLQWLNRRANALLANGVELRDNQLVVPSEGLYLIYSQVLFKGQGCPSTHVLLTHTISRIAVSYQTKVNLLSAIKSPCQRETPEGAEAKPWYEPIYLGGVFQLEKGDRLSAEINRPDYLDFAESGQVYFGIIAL", "test": "BLI; ForteBio Octet; biotinylated TNFα-GFP (20 μg/mL) fixed on streptavidin (SA) biosensors; scFv in solution, 250-8000 nM for wild type and 31.25-1000 nM for mutant; association 120 s, dissociation 180 s; KD = Koff/Kon", "settings": "both partners purified"}, "His-TNFα-GFP [2]": {"biological_target": "T1, His-TNFα-GFP", "test": "flow cytometry on cells; scFv displayed on CHO cells, labelled with TNFα-GFP and PE-conjugated anti-HA antibody for 1/2 h at 4 °C; with or without 5% BSA (antigen binding much reduced without BSA)", "settings": "one partner purified"}},
  "note": "Where a chain is given by its changes, count along the chain named. In names and notes the source's numbering stands.",
  "data": [
    {"binder": "B1", "values": [
      {"measurement": "Kd", "setting": "His-TNFα-GFP [1]", "value": 1.55, "unit": "µM"},
      {"measurement": "koff", "setting": "His-TNFα-GFP [1]", "value": 0.00873, "unit": "s⁻¹"},
      {"measurement": "kon", "setting": "His-TNFα-GFP [1]", "value": 5620, "unit": "M⁻¹ s⁻¹"}
    ]},
    {"binder": "B2", "values": [
      {"measurement": "binding result", "setting": "His-TNFα-GFP [2]", "value": "binds"}
    ]},
    {"binder": "B3", "values": [
      {"measurement": "Kd", "setting": "His-TNFα-GFP [1]", "value": 0.00969, "unit": "µM"},
      {"measurement": "koff", "setting": "His-TNFα-GFP [1]", "value": 0.00159, "unit": "s⁻¹"},
      {"measurement": "kon", "setting": "His-TNFα-GFP [1]", "value": 164000, "unit": "M⁻¹ s⁻¹"}
    ]}
  ]
}
